Reference: patent US20250262210A1 (TRUSTEES OF COLUMBIA UNIVERSITY IN THE CITY OF NEW YORK, published 2025)

How the values were obtained:
Assay in all cases: IP/MS, LZTR1 wild type-FLAG, U87
[1] = target: T1, ATAD2 (human, UniProt Q6PL18 1-1390, limits assumed)
T1 sequence (looked up): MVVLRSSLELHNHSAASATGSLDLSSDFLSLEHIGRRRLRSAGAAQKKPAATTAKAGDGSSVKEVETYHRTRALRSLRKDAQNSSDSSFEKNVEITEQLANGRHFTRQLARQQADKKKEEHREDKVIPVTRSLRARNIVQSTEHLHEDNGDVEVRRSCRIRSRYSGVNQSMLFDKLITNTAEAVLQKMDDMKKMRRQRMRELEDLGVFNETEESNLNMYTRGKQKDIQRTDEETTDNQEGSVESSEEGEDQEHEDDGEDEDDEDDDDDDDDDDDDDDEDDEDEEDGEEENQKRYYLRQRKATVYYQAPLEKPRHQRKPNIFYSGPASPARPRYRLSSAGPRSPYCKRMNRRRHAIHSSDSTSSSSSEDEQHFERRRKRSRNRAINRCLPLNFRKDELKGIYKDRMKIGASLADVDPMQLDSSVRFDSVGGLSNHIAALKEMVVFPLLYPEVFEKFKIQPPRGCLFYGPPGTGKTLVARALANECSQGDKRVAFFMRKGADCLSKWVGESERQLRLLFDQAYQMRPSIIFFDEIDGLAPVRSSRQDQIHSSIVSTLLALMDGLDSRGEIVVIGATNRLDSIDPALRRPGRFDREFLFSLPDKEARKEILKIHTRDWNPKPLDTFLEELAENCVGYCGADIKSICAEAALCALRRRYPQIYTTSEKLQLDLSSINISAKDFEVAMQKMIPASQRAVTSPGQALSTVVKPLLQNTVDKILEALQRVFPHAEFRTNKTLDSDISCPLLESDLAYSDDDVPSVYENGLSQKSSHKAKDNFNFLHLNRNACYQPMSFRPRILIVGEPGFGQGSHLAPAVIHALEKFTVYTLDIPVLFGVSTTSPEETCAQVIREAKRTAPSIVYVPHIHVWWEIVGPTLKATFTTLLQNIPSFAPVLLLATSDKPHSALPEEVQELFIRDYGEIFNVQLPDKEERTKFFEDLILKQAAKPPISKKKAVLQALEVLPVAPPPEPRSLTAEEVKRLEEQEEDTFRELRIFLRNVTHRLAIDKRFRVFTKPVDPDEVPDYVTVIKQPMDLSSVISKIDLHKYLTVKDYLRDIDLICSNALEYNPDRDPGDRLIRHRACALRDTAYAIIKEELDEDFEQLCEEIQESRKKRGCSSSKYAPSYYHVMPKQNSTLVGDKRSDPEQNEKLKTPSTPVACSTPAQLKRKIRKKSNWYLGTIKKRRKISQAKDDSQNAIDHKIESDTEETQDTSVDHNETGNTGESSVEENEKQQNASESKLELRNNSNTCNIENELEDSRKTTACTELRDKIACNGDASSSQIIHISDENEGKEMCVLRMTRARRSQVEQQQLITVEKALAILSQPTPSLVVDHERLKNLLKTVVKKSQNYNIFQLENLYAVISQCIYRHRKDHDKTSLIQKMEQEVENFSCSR
Outline: (§1)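 Gel slices were reduced with 5 mM DTT, alkylated with 11 mM IAA and digested overnight at 37° C. with trypsin. Peptides were analysed on an Orbitrap Fusion Tribrid by LC-MS/MS.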

[2] = target: T2, USP4 (human, UniProt Q13107 1-963, limits assumed)
T2 sequence (looked up): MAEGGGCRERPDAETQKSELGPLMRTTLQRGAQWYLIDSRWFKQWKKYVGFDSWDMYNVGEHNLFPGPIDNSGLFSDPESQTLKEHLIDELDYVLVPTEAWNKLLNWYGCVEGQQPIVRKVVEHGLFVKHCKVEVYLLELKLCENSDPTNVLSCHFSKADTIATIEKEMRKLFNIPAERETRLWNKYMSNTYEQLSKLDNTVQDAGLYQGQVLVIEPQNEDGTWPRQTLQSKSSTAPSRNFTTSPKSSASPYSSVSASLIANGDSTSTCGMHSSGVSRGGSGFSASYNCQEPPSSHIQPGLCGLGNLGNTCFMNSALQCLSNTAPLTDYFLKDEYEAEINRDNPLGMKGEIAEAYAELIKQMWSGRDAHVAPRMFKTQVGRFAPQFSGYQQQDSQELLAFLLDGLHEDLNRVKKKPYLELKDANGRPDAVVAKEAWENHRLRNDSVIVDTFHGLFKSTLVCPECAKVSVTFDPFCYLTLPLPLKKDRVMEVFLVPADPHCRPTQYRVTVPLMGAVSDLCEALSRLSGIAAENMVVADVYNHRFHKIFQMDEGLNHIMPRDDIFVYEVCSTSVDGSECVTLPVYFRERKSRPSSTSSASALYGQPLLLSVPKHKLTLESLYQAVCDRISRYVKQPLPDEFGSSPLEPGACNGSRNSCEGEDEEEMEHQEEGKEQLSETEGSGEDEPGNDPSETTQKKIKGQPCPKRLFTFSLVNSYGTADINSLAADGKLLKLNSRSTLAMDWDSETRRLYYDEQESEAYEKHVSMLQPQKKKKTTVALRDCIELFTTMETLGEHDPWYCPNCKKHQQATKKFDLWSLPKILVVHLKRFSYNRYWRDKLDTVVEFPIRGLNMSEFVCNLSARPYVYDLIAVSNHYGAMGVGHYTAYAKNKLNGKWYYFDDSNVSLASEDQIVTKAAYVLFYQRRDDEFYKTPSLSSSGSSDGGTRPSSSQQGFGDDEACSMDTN
Outline: as §1

[3] = target: PARP14 (human, UniProt Q460N5 1-1801, limits assumed)
Chain of PARP14 (Q460N5 whole entry): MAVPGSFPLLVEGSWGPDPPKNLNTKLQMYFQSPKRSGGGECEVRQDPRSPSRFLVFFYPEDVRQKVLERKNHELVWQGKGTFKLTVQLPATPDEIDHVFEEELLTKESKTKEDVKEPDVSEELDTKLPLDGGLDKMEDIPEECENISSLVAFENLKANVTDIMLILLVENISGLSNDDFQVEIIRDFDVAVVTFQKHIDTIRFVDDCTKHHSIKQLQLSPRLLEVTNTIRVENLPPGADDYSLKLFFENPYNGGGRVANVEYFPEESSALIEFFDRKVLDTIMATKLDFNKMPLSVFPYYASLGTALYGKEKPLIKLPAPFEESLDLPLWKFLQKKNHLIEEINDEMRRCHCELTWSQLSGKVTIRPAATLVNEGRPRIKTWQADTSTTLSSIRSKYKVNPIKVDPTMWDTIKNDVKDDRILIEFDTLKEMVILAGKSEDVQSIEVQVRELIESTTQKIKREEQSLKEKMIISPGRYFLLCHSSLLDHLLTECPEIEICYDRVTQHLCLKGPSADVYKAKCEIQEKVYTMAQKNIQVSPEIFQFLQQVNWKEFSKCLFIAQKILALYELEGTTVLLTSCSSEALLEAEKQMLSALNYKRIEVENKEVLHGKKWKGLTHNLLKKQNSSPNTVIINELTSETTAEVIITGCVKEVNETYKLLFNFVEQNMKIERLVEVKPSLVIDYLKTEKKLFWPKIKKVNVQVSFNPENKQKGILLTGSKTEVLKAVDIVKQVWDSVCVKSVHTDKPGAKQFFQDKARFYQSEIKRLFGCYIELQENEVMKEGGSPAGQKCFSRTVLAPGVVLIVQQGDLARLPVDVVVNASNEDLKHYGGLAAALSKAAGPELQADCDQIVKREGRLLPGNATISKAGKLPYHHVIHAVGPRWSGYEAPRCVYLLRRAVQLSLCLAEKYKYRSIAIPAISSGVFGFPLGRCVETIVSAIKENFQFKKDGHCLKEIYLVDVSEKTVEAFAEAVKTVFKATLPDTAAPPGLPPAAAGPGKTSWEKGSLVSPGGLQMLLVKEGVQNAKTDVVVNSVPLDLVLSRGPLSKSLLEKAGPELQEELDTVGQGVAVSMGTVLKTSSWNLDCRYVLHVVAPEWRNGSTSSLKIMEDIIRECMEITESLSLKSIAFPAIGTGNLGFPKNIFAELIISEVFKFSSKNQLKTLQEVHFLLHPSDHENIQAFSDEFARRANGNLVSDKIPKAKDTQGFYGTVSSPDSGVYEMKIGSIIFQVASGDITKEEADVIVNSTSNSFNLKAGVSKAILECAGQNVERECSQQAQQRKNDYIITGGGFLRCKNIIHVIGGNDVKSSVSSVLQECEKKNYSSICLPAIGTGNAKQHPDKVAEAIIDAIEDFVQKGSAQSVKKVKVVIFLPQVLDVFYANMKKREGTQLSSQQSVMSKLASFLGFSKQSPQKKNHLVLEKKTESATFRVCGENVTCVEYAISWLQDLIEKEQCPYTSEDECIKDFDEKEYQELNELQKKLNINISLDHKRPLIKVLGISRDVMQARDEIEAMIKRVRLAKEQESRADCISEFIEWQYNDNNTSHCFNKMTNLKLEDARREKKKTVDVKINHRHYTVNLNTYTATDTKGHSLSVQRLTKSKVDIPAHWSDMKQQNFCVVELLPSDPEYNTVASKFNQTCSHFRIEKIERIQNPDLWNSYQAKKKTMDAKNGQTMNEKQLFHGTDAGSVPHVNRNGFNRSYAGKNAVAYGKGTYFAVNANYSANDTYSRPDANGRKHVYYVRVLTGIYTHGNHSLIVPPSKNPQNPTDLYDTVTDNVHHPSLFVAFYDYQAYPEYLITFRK
Outline: as §1

Measured: binding result

B1: LZTR1-FLAG (other, human, UniProt Q8N653 1-840, looked up)
chain: MAGPGSTGGQIGAAALAGGARSKVAPSVDFDHSCSDSVEYLTLNFGPFETVHRWRRLPPCDEFVGARRSKHTVVAYKDAIYVFGGDNGKTMLNDLLRFDVKDCSWCRAFTTGTPPAPRYHHSAVVYGSSMFVFGGYTGDIYSNSNLKNKNDLFEYKFATGQWTEWKIEGRLPVARSAHGATVYSDKLWIFAGYDGNARLNDMWTIGLQDRELTCWEEVAQSGEIPPSCCNFPVAVCRDKMFVFSGQSGAKITNNLFQFEFKDKTWTRIPTEHLLRGSPPPPQRRYGHTMVAFDRHLYVFGGAADNTLPNELHCYDVDFQTWEVVQPSSDSEVGGAEVPERACASEEVPTLTYEERVGFKKSRDVFGLDFGTTSAKQPTQPASELPSGRLFHAAAVISDAMYIFGGTVDNNIRSGEMYRFQFSCYPKCTLHEDYGRLWESRQFCDVEFVLGEKEECVQGHVAIVTARSRWLRRKITQARERLAQKLEQEAAPVPREAPGVAAGGARPPLLHVAIREAEARPFEVLMQFLYTDKIKYPRKGHVEDVLLIMDVYKLALSFQLCRLEQLCRQYIEASVDLQNVLVVCESAARLQLSQLKEHCLNFVVKESHFNQVIMMKEFERLSSPLIVEIVRRKQQPPPRTPLDQPVDIGTSLIQDMKAYLEGAGAEFCDITLLLDGHPRPAHKAILAARSSYFEAMFRSFMPEDGQVNISIGEMVPSRQAFESMLRYIYYGEVNMPPEDSLYLFAAPYYYGFYNNRLQAYCKQNLEMNVTVQNVLQILEAADKTQALDMKRHCLHIIVHQFTKVSKLPTLRSLSQQLLLDIIDSLASHISDKQCAELGADI
notes: Expressed in HEK 293T, HeLa or U87 cells; used as cell lysate; also called LZTR1 wild type-FLAG; LZTR1 WT; not shown: FLAG tag at the C-terminus
binds: all assays above
